How the values were obtained:
[1] = molecular target: full-length ACA8 (plasma-membrane Ca2+-ATPase ACA8) (UniProt Q9LF79); assay: native MS; DDM-solubilised ACA8, apo and with CaM; 200 mM ammonium acetate pH 8.3, 0.018% DDM; nanoESI, spectra at 200 V collision energy
[2] = molecular target: full-length ACA8 (plasma-membrane Ca2+-ATPase ACA8) (UniProt Q9LF79)
[3] = molecular target: fluorescein-labeled regulatory domain of ACA8 (ACA8RD, residues 1-130) (UniProt Q9LF79); assay: fluorescence polarisation; fluorescence anisotropy, displacement; CaM added to a preformed complex of ACA8core (POPC nanodiscs) and labelled ACA8RD; decrease in anisotropy
Chain of fluorescein-labeled regulatory domain of ACA8 (ACA8RD, residues 1-130) (Q9LF79 other isoform, or with tags, fused parts or gaps): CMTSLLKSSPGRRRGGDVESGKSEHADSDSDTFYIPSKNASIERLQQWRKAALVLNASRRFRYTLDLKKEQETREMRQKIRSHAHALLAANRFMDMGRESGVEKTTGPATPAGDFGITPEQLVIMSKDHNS

Chain of full-length ACA8 (plasma-membrane Ca2+-ATPase ACA8) (Q9LF79 whole entry, the tested form may be a part): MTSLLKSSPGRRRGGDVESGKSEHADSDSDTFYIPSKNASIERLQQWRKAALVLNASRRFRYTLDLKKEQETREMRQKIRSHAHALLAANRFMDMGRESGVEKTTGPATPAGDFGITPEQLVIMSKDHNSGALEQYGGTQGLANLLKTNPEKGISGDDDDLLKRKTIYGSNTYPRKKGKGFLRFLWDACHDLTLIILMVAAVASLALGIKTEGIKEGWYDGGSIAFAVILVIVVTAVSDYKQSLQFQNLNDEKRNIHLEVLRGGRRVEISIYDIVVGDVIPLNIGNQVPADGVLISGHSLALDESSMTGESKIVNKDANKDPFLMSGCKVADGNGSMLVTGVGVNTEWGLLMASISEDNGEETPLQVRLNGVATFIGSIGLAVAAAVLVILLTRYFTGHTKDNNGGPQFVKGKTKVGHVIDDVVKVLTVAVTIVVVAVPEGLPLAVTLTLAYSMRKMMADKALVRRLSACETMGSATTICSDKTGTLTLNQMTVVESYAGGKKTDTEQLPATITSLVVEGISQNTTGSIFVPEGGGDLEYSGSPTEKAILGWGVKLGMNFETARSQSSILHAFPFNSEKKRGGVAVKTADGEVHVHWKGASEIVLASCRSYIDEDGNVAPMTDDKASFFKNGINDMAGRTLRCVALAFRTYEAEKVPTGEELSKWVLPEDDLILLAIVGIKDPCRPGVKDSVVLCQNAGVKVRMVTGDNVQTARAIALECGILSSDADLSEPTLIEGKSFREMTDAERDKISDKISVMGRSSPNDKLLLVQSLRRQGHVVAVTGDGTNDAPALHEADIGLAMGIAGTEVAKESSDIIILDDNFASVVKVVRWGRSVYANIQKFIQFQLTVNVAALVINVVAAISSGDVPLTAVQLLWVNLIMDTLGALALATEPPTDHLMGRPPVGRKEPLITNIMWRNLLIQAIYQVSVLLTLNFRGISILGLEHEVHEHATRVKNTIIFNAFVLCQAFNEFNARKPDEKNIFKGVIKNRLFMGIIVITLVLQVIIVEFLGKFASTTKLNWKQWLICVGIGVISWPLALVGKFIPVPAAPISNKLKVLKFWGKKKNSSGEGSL

stoichiometry N [1]: < 2
ATPase activity (Baginski assay) of detergent solubilized ACA8 with CaM against basal activity without CaM [2]: 2 fold
K0.5 [3]: 120 nM
Substance: calmodulin CaM7 from A. thaliana (from UniProt P59220 1-149) (natural protein)
